Results on one substance are retold here after US20250270332A1.

For the experiment, the target named is FZD/LRP. In words: cell-based or functional assay.

Chain of Wnt3a, recombinantly produced ligand (P56704 19-352): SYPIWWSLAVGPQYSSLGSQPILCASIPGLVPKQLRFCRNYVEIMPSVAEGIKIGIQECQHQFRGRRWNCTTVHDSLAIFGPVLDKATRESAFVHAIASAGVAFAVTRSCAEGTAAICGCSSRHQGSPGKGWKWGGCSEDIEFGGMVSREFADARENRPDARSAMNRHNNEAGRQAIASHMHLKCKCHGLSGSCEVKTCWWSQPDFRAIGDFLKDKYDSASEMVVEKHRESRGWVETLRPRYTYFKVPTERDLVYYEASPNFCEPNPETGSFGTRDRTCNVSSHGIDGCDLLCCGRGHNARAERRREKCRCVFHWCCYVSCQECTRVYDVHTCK

The substance Wnt3a, recombinantly produced ligand displayed a % Wnt Maxima Avg of 100%; an EC50 (nM), TOPFLASH assay of 6 nM; a Maximal Signal (% Wnt3a maxima) (% Wnt3a maxima) of 100; a Topflash EC50 (nM) Avg of 6 nM.
